Reference: publication PMC11112747, “Cyanovirin-N Binding to N-Acetyl-D-glucosamine Requires Carbohydrate-Binding Sites on Two Different Protomers” (Biochemistry, 2024)

Biological target: chemically synthesized dimannosylated peptide (DM), 12mer peptide from hemagglutinin (HA) with diman

CVN2L0, a tandem-linked dimeric CVN2 with zero-linker length (tandem repeat of two cyanovirin-N molecules)
Kd: 3.94 µM
